# Test results taken from IntAct's records for PubMed 18275819.
# Molecular target: cac1c_human CACNA1C (UniProt Q13936)
# Sequence (Q13936 whole entry): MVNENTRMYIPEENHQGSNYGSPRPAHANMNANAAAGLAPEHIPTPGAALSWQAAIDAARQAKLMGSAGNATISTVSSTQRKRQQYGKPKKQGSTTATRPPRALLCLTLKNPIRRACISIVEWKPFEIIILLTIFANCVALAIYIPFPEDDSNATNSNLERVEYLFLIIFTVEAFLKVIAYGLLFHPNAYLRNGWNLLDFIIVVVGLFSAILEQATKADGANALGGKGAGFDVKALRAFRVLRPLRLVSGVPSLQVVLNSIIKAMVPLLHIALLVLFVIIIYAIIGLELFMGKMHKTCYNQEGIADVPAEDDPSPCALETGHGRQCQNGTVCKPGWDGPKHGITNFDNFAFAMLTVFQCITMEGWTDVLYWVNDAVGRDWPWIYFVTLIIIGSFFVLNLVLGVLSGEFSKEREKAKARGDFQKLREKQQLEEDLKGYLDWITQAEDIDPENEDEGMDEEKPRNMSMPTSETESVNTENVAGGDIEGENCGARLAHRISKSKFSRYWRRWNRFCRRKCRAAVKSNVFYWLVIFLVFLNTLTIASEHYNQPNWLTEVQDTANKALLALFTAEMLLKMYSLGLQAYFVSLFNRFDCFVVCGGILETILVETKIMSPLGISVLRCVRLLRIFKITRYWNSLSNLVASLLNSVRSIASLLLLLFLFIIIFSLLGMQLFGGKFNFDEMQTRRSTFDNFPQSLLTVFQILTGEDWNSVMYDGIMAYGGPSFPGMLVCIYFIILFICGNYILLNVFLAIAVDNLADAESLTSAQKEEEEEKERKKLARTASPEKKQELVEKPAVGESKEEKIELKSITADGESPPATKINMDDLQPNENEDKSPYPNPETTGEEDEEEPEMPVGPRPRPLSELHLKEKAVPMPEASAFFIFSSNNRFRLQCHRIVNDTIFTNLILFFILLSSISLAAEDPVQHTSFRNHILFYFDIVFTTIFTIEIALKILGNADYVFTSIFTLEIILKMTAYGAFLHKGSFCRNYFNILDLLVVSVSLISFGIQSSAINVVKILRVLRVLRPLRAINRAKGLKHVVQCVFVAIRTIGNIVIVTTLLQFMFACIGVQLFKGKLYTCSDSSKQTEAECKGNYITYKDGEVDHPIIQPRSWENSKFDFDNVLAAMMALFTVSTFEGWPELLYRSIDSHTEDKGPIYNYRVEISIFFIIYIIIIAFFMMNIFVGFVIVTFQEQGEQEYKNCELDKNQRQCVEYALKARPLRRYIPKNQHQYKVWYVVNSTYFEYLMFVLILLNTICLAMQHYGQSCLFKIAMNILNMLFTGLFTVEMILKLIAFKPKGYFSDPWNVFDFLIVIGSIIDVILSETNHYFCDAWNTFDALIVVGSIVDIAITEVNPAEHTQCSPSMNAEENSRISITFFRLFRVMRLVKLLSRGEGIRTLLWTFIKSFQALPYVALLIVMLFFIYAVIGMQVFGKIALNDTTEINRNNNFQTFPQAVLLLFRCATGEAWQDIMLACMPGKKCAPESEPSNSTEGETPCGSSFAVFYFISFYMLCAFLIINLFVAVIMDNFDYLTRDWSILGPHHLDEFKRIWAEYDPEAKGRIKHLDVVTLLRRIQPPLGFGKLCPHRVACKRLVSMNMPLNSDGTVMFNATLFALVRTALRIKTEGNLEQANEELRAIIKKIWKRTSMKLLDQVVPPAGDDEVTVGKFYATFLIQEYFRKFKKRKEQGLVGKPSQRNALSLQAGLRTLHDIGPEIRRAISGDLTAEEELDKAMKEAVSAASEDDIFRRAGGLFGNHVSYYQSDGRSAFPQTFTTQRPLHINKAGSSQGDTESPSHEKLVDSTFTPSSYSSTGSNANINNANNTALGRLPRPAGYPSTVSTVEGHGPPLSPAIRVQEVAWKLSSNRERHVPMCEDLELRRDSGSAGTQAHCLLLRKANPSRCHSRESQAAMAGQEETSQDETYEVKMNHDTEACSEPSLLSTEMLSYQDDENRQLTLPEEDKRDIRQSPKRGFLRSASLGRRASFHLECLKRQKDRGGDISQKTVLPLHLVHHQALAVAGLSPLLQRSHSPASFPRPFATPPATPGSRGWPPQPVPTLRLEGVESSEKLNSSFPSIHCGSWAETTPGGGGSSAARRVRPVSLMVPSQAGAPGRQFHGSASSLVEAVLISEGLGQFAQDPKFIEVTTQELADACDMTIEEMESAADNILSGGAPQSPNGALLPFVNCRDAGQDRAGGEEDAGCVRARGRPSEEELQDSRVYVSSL
substance,measurement,value
"Voltage-dependent L-type calcium channel subunit beta-2 (Rattus norvegicus (Rat)), Q8VGC3-2 M245A",effect of a mutation on the interaction,decreasing interaction
